B1: EV1019 (antibody, human IgG1, lambda, V domains shown)
VH: QAQLVESGGGVVKPGGSLRLSCISSKFTFSSHAMHWVRQAPGKGLEWVAVIWHDGSKKYYADSVKGRFSVSRDNSKNTLFLQMDSLRAEDTAVYFCGKEWVGGTCDSWGQGTLVIVSS
VL: QPALTQEASVSGTVGQTVTLLCSGNSSNIGSYAVGWYQQISRGAPKIVVFGKSPASGIPDRFSGSKSGTTASLLVSGLQPEDEADYYCSTWDSRLSAVLFGGGTKLTVLR
notes: also called EV1019 Batch 1; EV1019 Batch 2
B2: EV1018 (antibody, human IgG1, lambda)
heavy: not shown
light: QSALTQETSVSGTVGQKVTLSCIGNNNNIGSHAVGWYQQISRGAPKMVLFGRSPPSGVPDRFSGSKSGTTASLIISGLQPEDEADYYCSTWDSSLSAVVFGGGTKLTVLRQPKAAPSVTLFPPSSEELQANKATLVCLISDFYPGAVTVAWKADSSPVKAGVETTTPSKQSNNKYAASSYLSLTPEQWKSHRSYSCQVTHEGSTVEKTVAPTECS
notes: also called wild-type EV1018; WT EV1018

Tests used:
[1] = target: T1, recombinant hGM-CSF derived from yeast (Leukine, Berlex) (human, UniProt P04141 18-144); assay: SPR (Biacore), antibody captured via immobilised protein G, rhGM-CSF injected
T1 construct: Bought product; also called yeast hGM-CSF (Leukine); yeast GM-CSF (Leukine)
Experimental: To calculate affinity constants for recombinant hGM-CSF binding to anti-hGM-CSF monoclonal antibodies, surface plasmon resonance (SPR) was performed on a Biacore System™ (FIG. 2).
In the method to analyze the interaction between antibodies and antigens, the purified antibodies were captured on a sensor chip via interaction with protein G immobilized to sensor chip surface, and then recombinant antigens were injected to the sensor chip. Purified antibodies were used and recombinant hGM-CSF was used as an antigen.

[2] = target: recombinant hGM-CSF expressed in E. coli (Fa. Biomol #2514) (human, UniProt P04141 18-144); assay: cell-based or functional assay
recombinant hGM-CSF expressed in E. coli (Fa. Biomol #2514), sequence (P04141 18-144 limits assumed): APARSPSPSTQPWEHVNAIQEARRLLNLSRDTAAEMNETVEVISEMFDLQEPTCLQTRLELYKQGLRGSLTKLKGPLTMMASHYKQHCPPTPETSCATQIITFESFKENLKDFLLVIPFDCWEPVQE

T1 sequence (P04141 other isoform, or with tags, fused parts or gaps limits assumed): as the sequence (P04141 18-144 limits assumed) above, with R23L counted along it

Binder	Kd [1]	IC50 in TF-1 assay, hGM-CSF (E. coli) at 1.0 ng/ml final concentration [2]	Ratio: Reference antibody to antibody of interest (IC50 of BVD2-21C11 over IC50 of EV1018, TF-1 assay) [2]
B1	0.36 nM		
B2	0.23 nM	0.02 nM	413

Source: US20140205611A1 (EVEC, published 2014)
